Test results taken from article PMC5402868.

Tests used:
[1] = biological target: α-synuclein-YFP fusion protein (recombinant) (UniProt P37840); assay: FRET or BRET
[2] = biological target: α-synuclein-YFP transgene product in C. elegans (UniProt P37840); assay: FRET or BRET

A mean YFP fluorescence lifetime in cells, day 4 [1] of 1480 ps and a mean YFP fluorescence lifetime, day 4 (oligomeric species) [1] of 2960 ps were found for “α-synuclein-YFP fusion protein (recombinant) (from UniProt P37840 1-140) (natural protein)” in this work.

A decrease of mean YFP fluorescence lifetime during ageing [2] of 130 ps was found for “α-synuclein-YFP transgene product in C. elegans (from UniProt P37840 1-140) (natural protein)” in this work.
